Data taken from paper PMC6365968 (Cell, 2018).
One block for each binder: values may come before it.

Legend:
SEC-MALS = target: the molecule itself; experiment: SEC-MALS
[1] = target: T1, mouse LAG3-Ig (Fc-tagged mouse LAG3 extracellular domain fusion protein) (mouse, UniProt Q61790 24-442); experiment: BLI
T1 sequence (looked up): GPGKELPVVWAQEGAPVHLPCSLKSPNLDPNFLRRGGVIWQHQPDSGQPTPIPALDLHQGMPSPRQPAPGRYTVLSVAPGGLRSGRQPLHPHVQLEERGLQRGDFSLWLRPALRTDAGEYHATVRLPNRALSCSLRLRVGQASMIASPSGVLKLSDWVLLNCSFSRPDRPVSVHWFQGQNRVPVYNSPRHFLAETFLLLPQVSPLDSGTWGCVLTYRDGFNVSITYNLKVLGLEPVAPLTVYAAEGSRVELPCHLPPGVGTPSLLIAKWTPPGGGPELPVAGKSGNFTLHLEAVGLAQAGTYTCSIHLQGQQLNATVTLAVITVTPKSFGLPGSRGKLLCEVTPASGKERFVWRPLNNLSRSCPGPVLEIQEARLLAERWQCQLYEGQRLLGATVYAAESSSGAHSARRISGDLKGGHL

[2] = target: T2, human LAG3-Ig (immunoglobulin Fc-tagged LAG3 extracellular domain fusion protein) (human, UniProt P18627 23-450); experiment: BLI
T2 sequence (looked up): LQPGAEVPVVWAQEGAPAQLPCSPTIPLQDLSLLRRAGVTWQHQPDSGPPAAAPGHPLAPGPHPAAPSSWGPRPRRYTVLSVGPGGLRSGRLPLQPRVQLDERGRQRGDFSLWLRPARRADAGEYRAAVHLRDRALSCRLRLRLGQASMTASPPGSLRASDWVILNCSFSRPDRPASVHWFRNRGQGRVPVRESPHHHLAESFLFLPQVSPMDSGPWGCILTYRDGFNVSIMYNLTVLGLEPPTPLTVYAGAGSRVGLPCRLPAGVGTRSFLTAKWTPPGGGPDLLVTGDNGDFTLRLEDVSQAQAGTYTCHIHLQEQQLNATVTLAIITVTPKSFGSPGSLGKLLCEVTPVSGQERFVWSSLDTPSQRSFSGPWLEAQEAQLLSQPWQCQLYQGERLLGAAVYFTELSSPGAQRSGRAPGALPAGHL

Kd [1]: ~1.5 nM
B1: FLAG-tagged mouse FGL1 (ligand, UniProt Q71KU9 23-314, looked up)
chain: LESESCLREQVRLRAQVHQLETRVKQQQTMIAQLLHEKEVQFLDKGSENSFIDLGGKRQYADCSEIYNDGFKQSGFYKIKPLQSLAEFSVYCDMSDGGGWTVIQRRSDGSENFNRGWNDYENGFGNFVQNNGEYWLGNKNINLLTIQGDYTLKIDLTDFEKNSSFAQYQSFKVGDKKSFYELNIGEYSGTAGDSLSGTFHPEVQWWASHQRMKFSTWDRDNDNYQGNCAEEEQSGWWFNRCHSANLNGVYYRGSYRAETDNGVVWYTWHGWWYSLKSVVMKIRPSDFIPNII
stoichiometry N (SEC-MALS): 2

binding result [2]: binds
B2: FLAG-tagged human FGL1 (ligand, UniProt Q08830 23-312, looked up)
chain: LEDCAQEQMRLRAQVRLLETRVKQQQVKIKQLLQENEVQFLDKGDENTVIDLGSKRQYADCSEIFNDGYKLSGFYKIKPLQSPAEFSVYCDMSDGGGWTVIQRRSDGSENFNRGWKDYENGFGNFVQKHGEYWLGNKNLHFLTTQEDYTLKIDLADFEKNSRYAQYKNFKVGDEKNFYELNIGEYSGTAGDSLAGNFHPEVQWWASHQRMKFSTWDRDHDNYEGNCAEEDQSGWWFNRCHSANLNGVYYSGPYTAKTDNGIVWYTWHGWWYSLKSVVMKIRPNDFIPNVI
